Test results published in patent US20260008815A1, “CYCLIC PEPTIDE OR SALT THEREOF, AND USES THEREOF” (FUJIFILM Corporation, priority 2023, published 2026).
Bridge positions count the residues as written; N and C are the ends. Ends that are not written are not given here. COCH2 = acetyl group that carries the bridge

What follows are substances tested against T1, Recombinant Human FGFR2 alpha (IIIc) Fc Chimera Protein (Homo sapiens, UniProt P21802) (assay: ELISA binding affinity of enzymatically synthesized peptide to FGFR). Settings: ELISA luminescence signal at 10 nmol/L peptide, SEQ ID NO: 47 at 10 nmol/L standardized to 1; enzyme synthesis product.
T1 construct: Fc (chimera); purchased R&D systems 712-FR-050
Method in brief: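 FGFR2 alpha (IIIc) Fc chimera (5 ng/well) was immobilized, and Myc-tagged peptide was bound 3 h at room temperature, then detected with anti-Myc antibody (2 h) and chemiluminescent substrate. Signal was corrected against FGFR-free wells. Score A–D was the luminescence at 10 nmol/L peptide, normalized to cyclic peptide SEQ ID NO: 47.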

T1 sequence (P21802 with tags, fused parts or gaps limits assumed): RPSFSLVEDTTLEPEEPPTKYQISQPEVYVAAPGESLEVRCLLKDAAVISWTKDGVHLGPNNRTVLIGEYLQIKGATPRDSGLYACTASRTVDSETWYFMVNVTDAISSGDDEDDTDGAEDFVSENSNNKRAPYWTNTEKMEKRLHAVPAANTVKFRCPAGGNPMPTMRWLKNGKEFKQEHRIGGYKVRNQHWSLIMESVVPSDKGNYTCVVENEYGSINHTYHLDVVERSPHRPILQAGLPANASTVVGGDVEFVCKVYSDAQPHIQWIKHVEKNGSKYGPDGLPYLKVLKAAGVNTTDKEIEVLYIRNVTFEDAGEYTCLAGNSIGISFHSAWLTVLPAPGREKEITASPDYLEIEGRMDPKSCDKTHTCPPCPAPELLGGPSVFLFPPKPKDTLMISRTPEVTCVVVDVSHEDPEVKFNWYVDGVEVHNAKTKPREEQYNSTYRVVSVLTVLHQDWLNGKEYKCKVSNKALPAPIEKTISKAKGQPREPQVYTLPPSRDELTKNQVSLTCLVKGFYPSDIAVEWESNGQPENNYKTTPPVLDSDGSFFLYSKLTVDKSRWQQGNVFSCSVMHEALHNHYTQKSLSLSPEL

Row | Evaluation result of binding affinity to FGFR | Substance
1 | C (0.1 or more and less than 0.5) | 292 (YCEENYLDPEQYQYFIPFK(COCH2)Y; thioether 2-19) [compound 292]
2 | A (0.7 or more) | 293 (YCEENYLDPEQYQYFILFK(COCH2)Y; thioether 2-19) [compound 293]
3 | B (0.5 or more and less than 0.7) | 294 (YCEENYLDPEQYQYFIIFK(COCH2)Y; thioether 2-19) [compound 294]
4 | A (0.7 or more) | 295 (YCEENYLDPEQYQYFIVFK(COCH2)Y; thioether 2-19) [compound 295]
5 | A (0.7 or more) | 296 (YCEENYLDPEQYQYFIFFK(COCH2)Y; thioether 2-19) [compound 296]
6 | A (0.7 or more) | 297 (YCEENYLDPEQYQYFIWFK(COCH2)Y; thioether 2-19) [compound 297]
7 | A (0.7 or more) | 298 (YCEENYLDPEQYQYFINFK(COCH2)Y; thioether 2-19) [compound 298]
8 | A (0.7 or more) | 299 (YCEENYLDPEQYQYFIQFK(COCH2)Y; thioether 2-19) [compound 299]
9 | A (0.7 or more) | 300 (YCEENYLDPEQYQYFISFK(COCH2)Y; thioether 2-19 (inferred)) [compound 300]
10 | A (0.7 or more) | 301 (YCEENYLDPEQYQYFITFK(COCH2)Y; thioether 2-19 (inferred)) [compound 301]

The remaining lines, values behind:

Row | Substance | Evaluation result of binding affinity to FGFR
11 | 276 (YCEENYLDPEQYQYYIYFK(COCH2)Y; thioether 2-19) [compound 276] | B (0.5 or more and less than 0.7)
12 | 277 (YCEENYLDPEQYQYFGYFK(COCH2)Y; thioether 2-19) [compound 277] | C (0.1 or more and less than 0.5)
13 | 278 (YCEENYLDPEQYQYFLYFK(COCH2)Y; thioether 2-19) [compound 278] | A (0.7 or more)
14 | 279 (YCEENYLDPEQYQYFVYFK(COCH2)Y; thioether 2-19) [compound 279] | A (0.7 or more)
15 | 280 (YCEENYLDPEQYQYFFYFK(COCH2)Y; thioether 2-19) [compound 280] | A (0.7 or more)
16 | 281 (YCEENYLDPEQYQYFYYFK(COCH2)Y; thioether 2-19) [compound 281] | A (0.7 or more)
17 | 282 (YCEENYLDPEQYQYFWYFK(COCH2)Y; thioether 2-19) [compound 282] | A (0.7 or more)
18 | 283 (YCEENYLDPEQYQYFNYFK(COCH2)Y; thioether 2-19) [compound 283] | A (0.7 or more)
19 | 284 (YCEENYLDPEQYQYFQYFK(COCH2)Y; thioether 2-19) [compound 284] | A (0.7 or more)
20 | 285 (YCEENYLDPEQYQYFSYFK(COCH2)Y; thioether 2-19) [compound 285] | A (0.7 or more)
21 | 286 (YCEENYLDPEQYQYFTYFK(COCH2)Y; thioether 2-19) [compound 286] | A (0.7 or more)
22 | 287 (YCEENYLDPEQYQYFDYFK(COCH2)Y; thioether 2-19) [compound 287] | A (0.7 or more)
23 | 288 (YCEENYLDPEQYQYFEYFK(COCH2)Y; thioether 2-19) [compound 288] | A (0.7 or more)
24 | 289 (YCEENYLDPEQYQYFRYFK(COCH2)Y; thioether 2-19) [compound 289] | A (0.7 or more)
25 | 290 (YCEENYLDPEQYQYFHYFK(COCH2)Y; thioether 2-19) [compound 290] | A (0.7 or more)
26 | 291 (YCEENYLDPEQYQYFIGFK(COCH2)Y; thioether 2-19) [compound 291] | B (0.5 or more and less than 0.7)
